Reference: FireProtDB (doi:10.1006/jmbi.1995.0599)

Conditions: Homo sapiens; pH 2.7; Thermal; DSC; glycine 0.05 M; reversible: yes; whole UniProt chain shown

B1: Lysozyme C wild type, P61626 (protein)
chain: MKALIVLGLVLLSVTVQGKVFERCELARTLKRLGMDGYRGISLANWMCLAKWESGYNTRATNYNAGDRSTDYGIFQINSRYWCNDGKTPGAVNACHLSCSALLQDNIADAVACAKRVVRDPQGIRAWVAWRNRCQNRDVRQYVQGCGV
Tm: 64.9 °C | heat capacity change of unfolding: 1.58 kcal/mol/K | unfolding enthalpy (calorimetric): 114 kcal/mol | unfolding enthalpy (van 't Hoff): 120 kcal/mol
